{
  "source": "patent US20110182903A1",
  "about": "“NOVEL SOLUBLE CD83 POLYPEPTIDES, FORMULATIONS AND METHODS OF USE” (priority 2008, published 2011)",
  "key": {"[1]": {"molecular_target": "the molecule itself", "test": "non-reducing SDS-PAGE; self-association through disulfide bonds"}, "[2]": {"molecular_target": "the molecule itself", "test": "size-exclusion chromatography and non-reduced SDS-PAGE with NEM; self-association"}, "[3]": {"test": "Storage stability of purified protein, reduced and non-reduced SDS-PAGE", "type": "physicochemical", "experimental": "The purified wild type hCD83ext, when prepared as described in Example 1 and formulated either in the presence or absence of 50% glycerol, degraded when stored at 4° C., perhaps due to an intrinsic instability of this biomolecule. […] Generally, the dimer composition increased monotonically with the sample age, indicating the progressive conversion of monomer to dimer under this storage condition. Note that there were at least two different monomer forms (lane 6, FIG. 6) and three different dimer forms (lanes 3 and 7, FIG. 6) derived from various sample preps."}, "[4]": {"tested_on": "heterotopic cardiac allograft", "test": "C57BL/6-to-BALB/c mouse heart transplant model (murine heterotopic cardiac allograft)", "type": "in vivo", "conditions": "for extension of allograft survival compared to untreated controls / mean survival time of graft: monotherapy; for mean survival time of graft: 100 ug per mouse per day for 8 days, untreated mean 8 days", "experimental": "Animal model: C57BL/6-to-BALB/c Mouse Heart Transplant Model\nMale adult C57BL/6 (H-2b) were used as donors and BALB/c (H-2d) mice were used as recipients (Jackson Laboratories, Bar Harbor, Mass.). Intra-abdominal heterotopic cardiac transplantation was performed as previously described (Corry et al. (1973) Transplantation 16(4):343-350 and Wang et al. (2007) J Immunol 179(7):4451-4463). In this study, transplant surgery involved transfer of fully MHC-mismatched hearts from C57BL/6 donors to BALB/c recipients, such that the autologous heart as well as the allogenic heart was present in the recipient.\nCardiac transplant recipients were treated as follows: Group I (five recipients) received no treatment. Group 2 (3 recipients) received hCD83ext-m3 monotherapy by i.v. at 100 μg/mouse/day, from −1 to +7 POD. […] Cardiac transplant survival was measured in the number of postoperative days (POD) that the allogenic heart continued to beat.\nCardiac transplant recipients were treated as follows: Group 4 (4 recipients) received hCD83ext-wt (SEQ ID NO:5) monotherapy by i.v. at 100 μg/mouse/day, from the day prior to transplantation until graft rejection."}, "[5]": {"tested_on": "TNFα production by LPS/IFN-γ stimulated human PBMCs", "test": "Inhibition of TNFα production by LPS/IFN-γ stimulated human PBMCs", "type": "cell-based", "conditions": "FIG. 30; four m3 preparations (pH 4.5, 5.5, 7.6) vs wild type ARG-021 in PBS pH 7.6", "excerpt": "The improved stability/activity of hCD83ext-m3 as compared to hCD83ext wild type was confirmed in a similar assay using human PBMCs."}, "[6]": {"tested_on": "rat renal allografts", "test": "Rat renal transplant model of chronic rejection (F344 to Lewis)", "type": "in vivo", "conditions": "POD 140; with CsA, compared to CsA alone; FIG. 37", "experimental": "F344 rats served as renal donors to Lewis rats. […] Transplant recipients were sacrificed on POD 140 and transplanted kidneys were assessed for indications of chronic rejection by histology and immunohistochemistry. Renal histology was scored by an independent pathologist assessing tubular atrophy, glomerular atrophy, interstitial fibrosis, intimal thickness, cell infiltrates and cortical scarring on a scale of 0-4, wherein 0=normal, 1=minimal change, 2=mild change, 3=moderate change and 4=marked change."}, "[7]": {"tested_on": "TNFα production by LPS/IFN-γ stimulated peripheral blood mononuclear cells (PBMCs)", "protocol": "The ability of the wild type and mutant hCD38ext to inhibit TNFα production by LPS/IFN-γ stimulated peripheral blood mononuclear cells (PBMCs) was evaluated in an in vitro assay using PBMCs from cynomologus monkeys. Specifically, cynomologus PBMCs were isolated and pretreated 12 hours with different concentrations (0.5, 5, 25 and 100 μg/ml) of hCD83ext wild type (formulated at pH 4.5 or 5.5), hCD83ext-m3 or hCD83ext-m5 (501-1). hCD83ext-m3 and hCD83ext-m5 were formulated at pH 5.5 or 7.6, respectively. The cells were then activated for 6 hours with LPS (1 μg/ml) plus IFN-γ (100 U/ml) in the presence of Brefeldin A (4 μg/ml) and then intracellularly stained for TNFα using a commercially available Fix/Perm kit. Flow cytometry acquisition and analysis of the amount of TNFα production was evaluated using either myeloid dendritic cells or monocytes. The results are expressed as % of mDC or monocytes producing TNFα and in Mean Fluorescence Units (MFU), which represents the levels of TNFα on a per cell basis.\nhCD83ext wild type protein originally formulated at pH 7.6 (data shown FIGS. 26 and 27) was buffer exchanged into a buffer with a pH of 4.5 or 5.5 and re-tested as described above for the ability to inhibit TNFα production by LPS/IFN-γ stimulated cynomologus PBMCs in vitro."}, "[8]": {"test": "Dimerization by size-exclusion chromatography and non-reduced SDS-PAGE with NEM pretreatment", "type": "physicochemical", "conditions": "SEC and non-reduced SDS-PAGE with NEM; FIGS. 20, 21", "excerpt": "Using exactly the same fermentation and downstream processing protocols as those for wild-type hCD83ext and CD83m-5, CD83m-3 was produced and purified. […] Purified CD83m-3 was subjected to structural characterization using SDS-PAGE (FIG. 15), CD (FIGS. 16 and 17), and spectrofluometry (FIG. 18) with results similar to wild-type hCD83ext and CD83m-5. Note that a clear and reproducible doublet was observed on non-reduced SDS-PAGE (FIG. 15). Also, note that none of these two bands corresponding to the CD83m-3 doublet appeared to have an identical mobility to the monomer species of CD83m-5, but the upper CD83m-3 band appeared to have an identical mobility to the monomer species of the wild-type hCD83ext (FIG. 19). To avoid potential disulfide bond scrambling during the sample preparation for non-reduced SDS-PAGE, the protocol was modified by pretreatment of the sample with N-Ethylmaleimide (NEM). NEM alkylates free thiol groups on cysteine residues that have not formed disulfide bonds, and thereby prevents subsequent disulfide bonding by that cysteine residue. It appears that the modified protocol using NEM provides a more reliable and consistent method for quantification of CD83 dimers by preventing any potential disulfide bond scrambling and the CD83 monomer is observed as a single band, rather than as a doublet (FIG. 20). […]"}, "[9]": {"tested_on": "kidney allografts from C57BL/6 mouse donors", "test": "Mouse orthotopic kidney transplant model", "type": "in vivo", "conditions": "monotherapy 100 μg/mouse/day i.v., day -1, day 0 and seven POD; untreated MST 31±4.9 days", "experimental": "The mouse orthotopic kidney transplant model (see Zhang et al. (2005) Microsurgery 16(2):103-109) was used to assess the ability of hCD83ext-m3 to induce allograft tolerance. BALB/c mice received kidney allografts from C57BL/6 mouse donors. Recipient mice were either untreated (two mice) or received hCD83ext-m3 (3 mice; 100 μg/mouse/day, i.v.) one day prior to transplantation (day −1), the day of transplantation (day 0) and for seven days post operative days (POD). The two untreated mice survived for 28 and 35 days, giving a mean survival time (MST) of 31±4.9 days. The three mice treated with hCD83ext-m3 each survived for more than 100 POD. Accordingly, monotherapy with hCD83ext-m3 leads to long-term allograft acceptance in the mouse orthotopic kidney transplant model."}, "[10]": {"conditions": "FIG. 26, 0.5, 5, 25 and 100 μg/ml, wild type at pH 4.5 or 5.5, m3 at pH 5.5, m5 at pH 7.6"}},
  "note": "Like-named read-outs stand apart in the source and are kept apart here.",
  "data": [
    {"molecule": "wild type hCD83ext (human CD83 extracellular domain with N-terminal Gly-Ser-Pro-Gly and C-terminal Ile, purified from E. coli) (receptor, It carries four extra N-terminal residues and the first transmembrane residue (Ile); Not glycosylated (made in E. coli); Preparations hold monomer and disulfide-linked dimers and multimers; also called hCD83ext-wt; hCD83ext wild type) GSPGTPEVKVACSEDVDLPCTAPWDPQVPYTVSWVKLLEGGEERMETPQEDHLRGQHYHQKGQNGSFDAPNERPYSLKIRNTTSCNSGTYRCTLQDPDGQRNLSGKVILRVTGCPAQRKEETFKKYRAE", "values": [
      {"measurement": "binding result", "setting": "[1]", "value": "binds"}
    ]},
    {"molecule": "hCD83ext-m5 (hCD83ext with the fifth cysteine, position 114 of SEQ ID NO:5, mutated to serine) (receptor, also called CD83m-5; hCD83m-5) GSPGTPEVKVACSEDVDLPCTAPWDPQVPYTVSWVKLLEGGEERMETPQEDHLRGQHYHQKGQNGSFDAPNERPYSLKIRNTTSCNSGTYRCTLQDPDGQRNLSGKVILRVTGSPAQRKEETFKKYRAE", "values": [
      {"measurement": "binding result", "setting": "[2]", "value": "binds"}
    ]},
    {"molecule": "hCD83ext-wt: recombinant human sCD83 (CD83 extracellular domain) purified from E. coli, wild type form, SEQ ID NO:5 (protein, Synthetic extracellular domain of human CD83 with the addition of Gly-Ser-Pro-Gly at the N-terminus and Ile at the C-terminus) GSPGTPEVKVACSEDVDLPCTAPWDPQVPYTVSWVKLLEGGEERMETPQEDHLRGQHYHQKGQNGSFDAPNERPYSLKIRNTTSCNSGTYRCTLQDPDGQRNLSGKVILRVTGCPAQRKEETFKKYRAEI", "values": [
      {"measurement": "degradation on storage", "setting": "[3]; stored at 4° C., with or without 50% glycerol", "value": "degraded"},
      {"measurement": "degradation on storage", "setting": "[3]; stored at -20° C.", "value": "completely prevented degradation"},
      {"measurement": "dimerization on long-term storage", "setting": "[3]; stored at -20° C., frozen", "value": "dimerization could still occur"},
      {"measurement": "MST ± SD", "setting": "[4]; Table 8, hCD83ext-wt 100 μg/mouse/day i.v., CsA 15 mg/kg/day s.c.", "value": "15.8 ± 1.0", "unit": "days"},
      {"measurement": "mean survival", "setting": "[4]; in combination with cyclosporine, glycerol omitted", "value": "approximately 14 days"},
      {"measurement": "long-term graft survival", "setting": "[4]; in combination with cyclosporine, stored in 50% glycerol, final glycerol concentration 8%", "value": "> 100", "unit": "days"},
      {"measurement": "extension of allograft survival compared to untreated controls", "setting": "[4]", "value": "approximately 2 fold"},
      {"measurement": "mean survival time of graft", "setting": "[4]", "value": "approximately 14 days"}
    ]},
    {"molecule": "hCD83ext-m3: m3 mutant form of human sCD83; SEQ ID NO:7 with Cys at 12, 20, 92, 114 and Ser at 85 (protein, Synthetic extracellular domain of human CD83 with the addition of Gly-Ser-Pro-Gly and the N-terminus and Ile at the C-terminus) GSPGTPEVKVAXSEDVDLPXTAPWDPQVPYTVSWVKLLEGGEERMETPQEDHLRGQHYHQKGQNGSFDAPNERPYSLKIRNTTSXNSGTYRXTLQDPDGQRNLSGKVILRVTGXPAQRKEETFKKYRAEI", "values": [
      {"measurement": "ability to inhibit TNFα production (relative activity)", "setting": "[5]", "value": "outperformed hCD83ext wild type"},
      {"measurement": "immunohistochemistry grading in renal allografts (IgG, IgM deposits; CD2, CD4, ED-1 infiltration)", "setting": "[6]", "value": "significantly (p<0.05) improves immunohistochemistry grading"},
      {"measurement": "synergy with CsA and operational tolerance", "setting": "[4]; 3 doses on days -1 to +1 plus CsA, CsA withdrawn at day 50, data not shown", "value": "full synergy with CsA, but incomplete operational tolerance"},
      {"measurement": "MST ± SD", "setting": "[4]; Table 7, hCD83ext-m3 100 μg/mouse/day i.v. -1 to +7 POD, CsA 15 mg/kg/day s.c. daily", "value": "13.7 ± 0.6", "unit": "days"},
      {"measurement": "allograft tolerance after CsA withdrawal", "setting": "[4]; combination therapy with CsA, CsA withdrawn at day 28, data not shown", "value": "does not lead to permanent allograft tolerance"},
      {"measurement": "extension of allograft survival compared to untreated controls", "setting": "[4]", "value": "approximately 2 fold"},
      {"measurement": "mean survival time of graft", "setting": "[4]", "value": "approximately 14 days"},
      {"measurement": "allograft tolerance after cessation of daily CsA therapy", "setting": "[4]; plus CsA until POD 50, hCD83ext-m3 100 μg i.v. days -1 to +7, data not shown", "value": "complete allograft tolerance"},
      {"measurement": "ability to inhibit TNFα production (relative activity)", "setting": "[7]; [10]", "value": "more active than the m5 mutant"},
      {"measurement": "dimerization", "setting": "[8]", "value": "absent or minimal"},
      {"measurement": "survival of kidney allograft recipients", "setting": "[9]", "value": "more than 100 POD"}
    ]},
    {"molecule": "hCD83ext-m5: soluble CD83 mutant, fifth cysteine of SEQ ID NO:5 mutated to serine, SEQ ID NO:6 (WO2004/046182) (protein, Synthetic extracellular domain of human CD83 with the addition of Gly-Ser-Pro-Gly and the N-terminus and Ile at the C-terminus, with Cys to Ser (C2S) mutation at position 114) GSPGTPEVKVACSEDVDLPCTAPWDPQVPYTVSWVKLLEGGEERMETPQEDHLRGQHYHQKGQNGSFDAPNERPYSLKIRNTTSCNSGTYRCTLQDPDGQRNLSGKVILRVTGSPAQRKEETFKKYRAEI", "values": [
      {"measurement": "mean survival time of graft", "setting": "[4]", "value": "approximately 14 days"},
      {"measurement": "ability to inhibit TNFα production (relative activity)", "setting": "[7]; [10]", "value": "more active than the wild type hCD93ext"},
      {"measurement": "ability to inhibit TNFα production (relative activity)", "setting": "[7]; FIG. 27, proteins formulated at pH 7.6", "value": "outperformed two preparations of hCD83ext wild type"},
      {"measurement": "dimerization", "setting": "[8]", "value": "significant"}
    ]}
  ]
}
